Reference: patent publication US20060210973A1

Molecular target: HA-TrioGEFD2 (pMTHA-TrioGEFD2) (UniProt O75962)
Assay: cell-based or functional assay

percentage of co-transfected PC12 cells with neurites after NGF: 16%
Substance: GFP alone
